Here are results for two molecules from article PMC7797054, “Structural basis for inhibition of the type I-F CRISPR–Cas surveillance complex by AcrIF4, AcrIF7 and AcrIF14” (Nucleic Acids Research, 2020).

Data set [1] deals with type I-F CRISPR-Cas surveillance complex (the Csy complex) from Pseudomonas aeruginosa PA14 (Pseudomonas aeruginosa) (UniProt Q02ML9). As to the kind of experiment: cryo-EM structure; Csy incubated with AcrIF protein at molar ratio 1:10 for 1 h on ice, SEC in 20 mM HEPES pH 7.5, 100 mM KCl, 5% glycerol, 1 mM TCEP; 0.5 mg/ml on UltrAuFoil grids, Titan Krios 300 kV.
Data set [2] concerns the molecule itself. Described as above.

Chain of type I-F CRISPR-Cas surveillance complex (the Csy complex) from Pseudomonas aeruginosa PA14 (Pseudomonas aeruginosa) (Q02ML9 whole entry, chain 1 of 3): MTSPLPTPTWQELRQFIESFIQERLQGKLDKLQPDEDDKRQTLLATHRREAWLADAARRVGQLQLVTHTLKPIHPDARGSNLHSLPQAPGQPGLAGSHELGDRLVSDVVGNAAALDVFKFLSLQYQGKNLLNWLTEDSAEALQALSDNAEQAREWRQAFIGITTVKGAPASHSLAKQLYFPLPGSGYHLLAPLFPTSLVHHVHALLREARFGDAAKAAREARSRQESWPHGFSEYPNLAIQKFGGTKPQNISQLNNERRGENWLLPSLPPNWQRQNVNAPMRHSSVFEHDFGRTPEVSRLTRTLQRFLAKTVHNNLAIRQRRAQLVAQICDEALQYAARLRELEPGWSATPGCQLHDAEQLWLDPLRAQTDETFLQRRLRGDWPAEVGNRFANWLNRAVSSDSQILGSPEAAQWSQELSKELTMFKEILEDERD
Chain of type I-F CRISPR-Cas surveillance complex (the Csy complex) from Pseudomonas aeruginosa PA14 (Pseudomonas aeruginosa) (Q02MM0 whole entry, chain 2 of 3, further chain): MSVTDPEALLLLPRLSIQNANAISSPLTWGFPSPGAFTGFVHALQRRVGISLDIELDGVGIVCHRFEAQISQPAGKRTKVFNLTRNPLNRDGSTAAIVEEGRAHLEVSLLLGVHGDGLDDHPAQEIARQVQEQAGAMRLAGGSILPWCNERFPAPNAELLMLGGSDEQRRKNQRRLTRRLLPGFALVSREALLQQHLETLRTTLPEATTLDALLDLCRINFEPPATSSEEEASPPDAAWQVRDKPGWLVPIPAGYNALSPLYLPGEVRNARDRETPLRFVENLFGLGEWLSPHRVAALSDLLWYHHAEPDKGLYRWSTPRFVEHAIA
Chain of type I-F CRISPR-Cas surveillance complex (the Csy complex) from Pseudomonas aeruginosa PA14 (Pseudomonas aeruginosa) (Q02MM2 whole entry, chain 4 of 3, further chain): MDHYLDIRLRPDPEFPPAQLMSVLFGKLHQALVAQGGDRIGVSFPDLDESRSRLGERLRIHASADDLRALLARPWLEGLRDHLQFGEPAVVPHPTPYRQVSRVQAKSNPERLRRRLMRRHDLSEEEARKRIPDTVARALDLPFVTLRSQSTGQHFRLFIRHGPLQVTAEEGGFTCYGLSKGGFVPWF

As for AcrIF14 (natural protein), the stoichiometry N in data set [1] was found to be 2.

B1: Cas7f subunit of the Csy complex (natural protein, Pseudomonas aeruginosa)
chain: MSKPILSTASVLAFERKLDPSDALMSAGAWAQRDASQEWPAVTVREKSVRGTISNRLKTKDRDPAKLDASIQSPNLQTVDVANLPSDADTLKVRFTLRVLGGAGTPSACNDAAYRDKLLQTVATYVNDQGFAELARRYAHNLANARFLWRNRVGAEAVEVRINHIRQGEVARAWRFDALAIGLRDFKADAELDALAELIASGLSGSGHVLLEVVAFARIGDGQEVFPSQELILDKGDKKGQKSKTLYSVRDAAAIHSQKIGNALRTIDTWYPDEDGLGPIAVEPYGSVTSQGKAYRQPKQKLDFYTLLDNWVLRDEAPAVEQQHYVIANLIRGGVFGEAEEK
notes: Cas7f (Csy3) of Pseudomonas aeruginosa PA14; Stood in the assay as a subunit (six copies) of the whole Csy complex; It may carry the His tag of the complex (surmise); also called Cas7.1f-Cas7.6f; Cas7.4f; source: E. coli BL21 (DE3), co-expressed and purified as part of the Csy complex (HisTrap HP, HiTrap Q, Superdex 200)
Take B1: the “stoichiometry N” value in data set [2] was 6.

A word on the stoichiometry N: it is a count of units in the complex or per binding partner.
